Source: patent US7951356B1, “Tissue factor compositions and kits for coagulation and tumor treatment” (Board of Regents, The University of Texas System, priority 1997, dated 2011)

B1: tTF219 (W158R): tryptophan at amino acid 158 of tTF219 mutated to an arginine; SEQ ID NO:8 (protein)
chain: SGTTNTVAAYNLTWKSTNFKTILEWEPKPVNQVYTVQISTKSGDWKSKCFYTTDTECDLTDEIVKDVKQTYLARVFSYPAGNVESTGSAGEPLYENSPEFTPYLETNLGQPTIQSFEQVGTKVNVTVEDERTLVRRNNTFLSLRDVFGKDLIYTLYYRKSSSSGKKTAKTNTNEFLIDVDKGENYCFSVQAVIPSRTVNRKSTDSPVECMGQEKGEFRE
B2: H6—N′-cys-tTF219: tTF219 with (His)6 and a Cys in front of the N′-terminus; SEQ ID NO:2 (protein)
chain: HHHHHHAMALVPRGSCGTTNTVAAYNLTWKSTNFKTILEWEPKPVNQVYTVQISTKSGDWKSKCFYTTDTECDLTDEIVKDVKQTYLARVFSYPAGNVESTGSAGEPLYENSPEFTPYLETNLGQPTIQSFEQVGTKVNVTVEDERTLVRRNNTFLSLRDVFGKDLIYTLYYWKSSSSGKKTAKTNTNEFLIDVDKGENYCFSVQAVIPSRTVNRKSTDSPVECMGQEKGEFRE
B3: Fab′-H6—N′-cys-tTF219 (conjugate)
chain: B2 chain
modifications: left off: another chain or arm of the molecule; large carriers
B4: IgG-H6—N′-cys-tTF219 (conjugate)
chain: B2 chain
modifications: left off: large carriers
B5: H6—N′ cys-tTF219 dimer: chemically conjugated dimer of SEQ ID NO:2 (protein)
chain: B2 chain
modifications: chemically conjugated dimer
B6: tTF220-cys-C′: tTF220-cys-C′, tested beside H6-tTF220-cys-C′ (FIG. 6) (protein)
chain: GSGTTNTVAAYNLTWKSTNFKTILEWEPKPVNQVYTVQISTKSGDWKSKCFYTTDTECDLTDEIVKDVKQTYLARVFSYPAGNVESTGSAGEPLYENSPEFTPYLETNLGQPTIQSFEQVGTKVNVTVEDERTLVRRNNTFLSLRDVFGKDLIYTLYYWKSSSSGKKTAKTNTNEFLIDVDKGENYCFSVQAVIPSRTVNRKSTDSPVECMGQEKGEFREIC
B7: H6-tTF219-cys-C′: tTF219 with (His)6 and a Cys after amino acid 219; SEQ ID NO:3 (protein)
chain: HHHHHHAMALVPRGSGTTNTVAAYNLTWKSTNFKTILEWEPKPVNQVYTVQISTKSGDWKSKCFYTTDTECDLTDEIVKDVKQTYLARVFSYPAGNVESTGSAGEPLYENSPEFTPYLETNLGQPTIQSFEQVGTKVNVTVEDERTLVRRNNTFLSLRDVFGKDLIYTLYYWKSSSSGKKTAKTNTNEFLIDVDKGENYCFSVQAVIPSRTVNRKSTDSPVECMGQEKGEFREC
B8: “standard” tTF: “standard” tTF219 preparation obtained from Dr. Thomas Edgington (The Scripps Research Institute) (protein)
chain: GSGTTNTVAAYNLTWKSTNFKTILEWEPKPVNQVYTVQISTKSGDWKSKCFYTTDTECDLTDEIVKDVKQTYLARVFSYPAGNVESTGSAGEPLYENSPEFTPYLETNLGQPTIQSFEQVGTKVNVTVEDERTLVRRNNTFLSLRDVFGKDLIYTLYYWKSSSSGKKTAKTNTNEFLIDVDKGENYCFSVQAVIPSRTVNRKSTDSPVECMGQEKGEFRE
B9: H6-tTF221-cys-C′: tTF219 mutated to carry Ile-Phe-Cys after amino acid 219; SEQ ID NO:7 (protein)
chain: HHHHHHAMALVPRGSGTTNTVAAYNLTWKSTNFKTILEWEPKPVNQVYTVQISTKSGDWKSKCFYTTDTECDLTDEIVKDVKQTYLARVFSYPAGNVESTGSAGEPLYENSPEFTPYLETNLGQPTIQSFEQVGTKVNVTVEDERTLVRRNNTFLSLRDVFGKDLIYTLYYWKSSSSGKKTAKTNTNEFLIDVDKGENYCFSVQAVIPSRTVNRKSTDSPVECMGQEKGEFREIFC
B10: H6-tTF221-cys-C′ dimer: chemically conjugated dimer of SEQ ID NO:7 (protein)
chain: B9 chain
modifications: chemically conjugated dimer
B11: H6-tTF220-cys-C′: tTF219 mutated to carry Ile-Cys after amino acid 219; SEQ ID NO:6 (protein)
chain: HHHHHHAMALVPRGSGTTNTVAAYNLTWKSTNFKTILEWEPKPVNQVYTVQISTKSGDWKSKCFYTTDTECDLTDEIVKDVKQTYLARVFSYPAGNVESTGSAGEPLYENSPEFTPYLETNLGQPTIQSFEQVGTKVNVTVEDERTLVRRNNTFLSLRDVFGKDLIYTLYYWKSSSSGKKTAKTNTNEFLIDVDKGENYCFSVQAVIPSRTVNRKSTDSPVECMGQEKGEFREIC
B12: tTF221-cys-C′: tTF221-cys-C′, tested beside H6-tTF221-cys-C′ (FIG. 7) (protein)
chain: GSGTTNTVAAYNLTWKSTNFKTILEWEPKPVNQVYTVQISTKSGDWKSKCFYTTDTECDLTDEIVKDVKQTYLARVFSYPAGNVESTGSAGEPLYENSPEFTPYLETNLGQPTIQSFEQVGTKVNVTVEDERTLVRRNNTFLSLRDVFGKDLIYTLYYWKSSSSGKKTAKTNTNEFLIDVDKGENYCFSVQAVIPSRTVNRKSTDSPVECMGQEKGEFREIFC

Tests used:
[1] = Toxicity to mice of tTF mutants and Factor VIIa given separately; assay type: in vivo
citrated mouse plasma = assay: In vitro coagulation assay: tTF constructs localized on A20 lymphoma cells via bispecific antibody B21-2/10H10; assay type: cell-based; details: for coagulation-inducing activity once localized on A20 cells via B21-2/10H10, in words (compared with tTF219): plasma coagulation; for concentration applied to the cells at which plasma coagulated in 50 seconds: A20 cells coated with B21-2/10H10, FIG. 5-8, 15; for fold less active than tTF219 at inducing coagulation of plasma: localized on A20 cells via B21-2/10H10
Experimental: This assay was used to verify that tTF, various derivatives and mutants thereof, and immunoglobulin-tTF conjugates acquire coagulation inducing activity once localized at a cell surface. A20 lymphoma cells (I-A^d positive) (2×10^6 cells/ml, 50 μl) were incubated for 1 h at room temperature with a bispecific antibody (50 μg/ml, 25 μl) consisting of a Fab′ arm of the B21-2 antibody directed against I-A^d linked to a Fab′ arm of the 10H10 antibody directed against a non-inhibitory epitope on tTF. The cells were washed at room temperature and varying concentrations of tTF, derivatives or mutants thereof, or immunoglobulin-tTF conjugates were added for 1 hour at room temperature. The bispecific antibody captures the tTF or tTF linked to immunoglobulin, bringing it into close approximation to the cell surface, where coagulation can proceed.
The cells were washed again at room temperature, resuspended in 75 μl of PBS and warmed to 37° C. […] The time for the first fibrin strands to form was recorded. Clotting time was plotted against tTF concentration and curves compared with standard curves prepared using standard tTF219 preparations.

factor X = assay: Factor Xa production assay (chromogenic substrate S-2765) with constructs localized on A20 cells; assay type: biochemical; details: presence of Factors II, VII and IX, B21-2/10H10, FIG. 17
Experimental: The assay measures factor X to Xa conversion rate by means of a chromophore-generating substrate (S-2765) for factor Xa.
A20 cells (2×10^7 cells) were suspended in 10 ml medium containing 0.2% w/v sodium azide. To 2.5 ml cell suspension were added 6.8 μg of B21-2/10H10 “capture” bispecific antibody for 50 minutes at room temperature. The cells were washed and resuspended in 2.5 ml medium containing 0.2% w/v sodium azide. The tTF and immunoglobulin-tTF conjugates dissolved in the same medium were distributed in 100 μl volumes at a range of concentrations into wells of 96-well microtiter plates. To the wells was then added 100 μl of the cell/bispecific antibody suspension. The plates were incubated for 50 minutes at room temperature.
The plates were centrifuged, the supernatants were discarded and the cell pellets were resuspended in 250 μl of Wash Buffer (150 mM NaCl: 50 mM Tris-HCl, pH 8; 0.2% w/v bovine serum albumin). The cells were washed again and cells resuspended in 100 μl of a 12.5-fold dilution of Proplex T (Baxter, Inc.) containing Factors II, VII, IX and X in Dilution Buffer (Wash Buffer supplemented with 12.5 mM calcium chloride). Plates were incubated at 37° C. for 30 minutes. To each well was added Stop Solution (12.5 mM sodium ethylenediaminetetracetic acid (EDTA)) in wash buffer. Plates were centrifuged. […] The optical density of each solution was measured at 409 nm. […]

Molecule	coagulation-inducing activity once localized on A20 cells via B21-2/10H10, in words (compared with tTF219) (citrated mouse plasma)	concentration applied to the cells at which plasma coagulated in 50 seconds (citrated mouse plasma) [nM]	other results
B1	Weak coagulation	–	toxicity to mice [1]: practically non-toxic; coagulation times compared with tTF219 and Factor VIIa at the same concentrations (citrated mouse plasma; addition of Factor VIIa at 1 nM or greater, FIG. 22): only marginally slower coagulation times
B2	as active as tTF	–	–
B3	–	–	activity at inducing Xa formation compared with H6—N′-cys-tTF219 (factor X): as active as H6—N′-cys-tTF219 itself
B4	–	5	fold less active than tTF219 at inducing coagulation of plasma (citrated mouse plasma): 5 fold; fold less active than H6—N′-cys-tTF219 at inducing Xa formation (factor X): 2 fold
B5	as active as tTF219 itself	–	–
B6	as active as tTF219	0.5	–
B7	as active as tTF	3	–
B8	–	3	–
B9	as active as tTF219	0.5	concentration applied to the cells at which plasma coagulated in 50 seconds (citrated mouse plasma; listed as H6-tTF221-cys-C′ monomer): 1 nM
B10	–	4	fold less active than tTF219 at inducing coagulation of plasma (citrated mouse plasma): 4 fold
B11	as active as tTF219	0.5	–
B12	as active as tTF219	0.5	–
